Source: the supplement of paper PMC10065799, “High-throughput profiling of sequence recognition by tyrosine kinases and SH2 domains using bacterial peptide display” (eLife, 2023)

What was measured:
Grb2 SH2 = Grb2 SH2 (UniProt P62993); experiment: SH2 binding enrichment of the phosphorylated peptide, bacterial display (enrichment ratio); higher = better substrate or ligand; peptides without Tyr show the background
c-Src SH2 = experiment: as above
SHP2-C SH2 = experiment: as above
EPHB2 = EPHB2 (UniProt P29323); experiment: phosphorylation enrichment, bacterial display (enrichment ratio); higher = better substrate or ligand; peptides without Tyr show the background
EPHB2, sequence (P29323 whole entry, looked up): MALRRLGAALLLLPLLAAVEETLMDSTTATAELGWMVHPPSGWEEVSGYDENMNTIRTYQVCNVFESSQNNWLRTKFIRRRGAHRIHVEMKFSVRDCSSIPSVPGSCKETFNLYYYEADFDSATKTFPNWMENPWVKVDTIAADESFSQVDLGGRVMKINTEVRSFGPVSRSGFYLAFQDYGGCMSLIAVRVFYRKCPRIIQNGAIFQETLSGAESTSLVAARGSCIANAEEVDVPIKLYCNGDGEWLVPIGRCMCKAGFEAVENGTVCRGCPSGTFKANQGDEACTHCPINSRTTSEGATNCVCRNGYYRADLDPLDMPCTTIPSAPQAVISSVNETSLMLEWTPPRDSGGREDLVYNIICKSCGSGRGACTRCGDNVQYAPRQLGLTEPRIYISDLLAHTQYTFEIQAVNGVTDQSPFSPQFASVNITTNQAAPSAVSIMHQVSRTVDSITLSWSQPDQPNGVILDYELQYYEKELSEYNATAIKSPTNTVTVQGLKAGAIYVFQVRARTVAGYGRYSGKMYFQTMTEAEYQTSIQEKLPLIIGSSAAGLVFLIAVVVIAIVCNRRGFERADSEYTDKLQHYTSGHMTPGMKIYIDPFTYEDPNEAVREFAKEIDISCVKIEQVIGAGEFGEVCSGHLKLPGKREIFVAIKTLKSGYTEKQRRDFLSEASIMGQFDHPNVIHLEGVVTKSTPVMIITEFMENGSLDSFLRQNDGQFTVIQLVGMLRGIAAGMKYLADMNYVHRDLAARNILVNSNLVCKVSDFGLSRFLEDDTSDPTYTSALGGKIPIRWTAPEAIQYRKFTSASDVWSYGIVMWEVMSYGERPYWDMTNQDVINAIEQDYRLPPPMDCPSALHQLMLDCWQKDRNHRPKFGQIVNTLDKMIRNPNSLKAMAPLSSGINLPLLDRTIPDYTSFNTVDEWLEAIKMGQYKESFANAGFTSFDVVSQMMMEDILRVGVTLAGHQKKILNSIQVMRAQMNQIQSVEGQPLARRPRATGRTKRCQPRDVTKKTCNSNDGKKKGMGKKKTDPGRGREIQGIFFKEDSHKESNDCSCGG

EPHB1 = EPHB1 (UniProt P54762); experiment: as above
FGFR3 = FGFR3 (UniProt P22607); experiment: as above
FGFR3, sequence (P22607 whole entry, looked up): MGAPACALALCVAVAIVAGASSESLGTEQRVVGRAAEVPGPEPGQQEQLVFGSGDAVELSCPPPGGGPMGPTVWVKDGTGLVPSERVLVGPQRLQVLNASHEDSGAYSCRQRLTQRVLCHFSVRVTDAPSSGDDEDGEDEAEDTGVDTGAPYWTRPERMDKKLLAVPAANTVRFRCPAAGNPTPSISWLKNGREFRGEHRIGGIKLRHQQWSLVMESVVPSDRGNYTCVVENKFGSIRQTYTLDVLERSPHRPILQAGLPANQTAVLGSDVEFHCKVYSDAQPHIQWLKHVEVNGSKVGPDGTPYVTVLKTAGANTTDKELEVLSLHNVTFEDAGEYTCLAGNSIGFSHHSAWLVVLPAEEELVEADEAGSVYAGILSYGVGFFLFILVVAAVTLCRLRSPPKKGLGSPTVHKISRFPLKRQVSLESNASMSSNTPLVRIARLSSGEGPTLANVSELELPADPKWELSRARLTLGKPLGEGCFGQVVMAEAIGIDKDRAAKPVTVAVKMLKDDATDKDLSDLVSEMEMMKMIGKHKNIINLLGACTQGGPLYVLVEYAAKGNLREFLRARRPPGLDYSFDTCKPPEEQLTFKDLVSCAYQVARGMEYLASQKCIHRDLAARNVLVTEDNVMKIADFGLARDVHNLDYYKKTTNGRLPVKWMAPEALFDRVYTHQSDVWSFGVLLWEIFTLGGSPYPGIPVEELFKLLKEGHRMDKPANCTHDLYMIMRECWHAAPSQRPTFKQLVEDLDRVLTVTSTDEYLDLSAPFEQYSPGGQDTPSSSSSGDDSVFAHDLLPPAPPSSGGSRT

MERTK = MERTK (UniProt Q12866); experiment: as above
c-Src = experiment: as above
c-Abl (mouse) = experiment: as above
Hck = Hck (UniProt P08631); experiment: as above
Hck, sequence (P08631 whole entry, looked up): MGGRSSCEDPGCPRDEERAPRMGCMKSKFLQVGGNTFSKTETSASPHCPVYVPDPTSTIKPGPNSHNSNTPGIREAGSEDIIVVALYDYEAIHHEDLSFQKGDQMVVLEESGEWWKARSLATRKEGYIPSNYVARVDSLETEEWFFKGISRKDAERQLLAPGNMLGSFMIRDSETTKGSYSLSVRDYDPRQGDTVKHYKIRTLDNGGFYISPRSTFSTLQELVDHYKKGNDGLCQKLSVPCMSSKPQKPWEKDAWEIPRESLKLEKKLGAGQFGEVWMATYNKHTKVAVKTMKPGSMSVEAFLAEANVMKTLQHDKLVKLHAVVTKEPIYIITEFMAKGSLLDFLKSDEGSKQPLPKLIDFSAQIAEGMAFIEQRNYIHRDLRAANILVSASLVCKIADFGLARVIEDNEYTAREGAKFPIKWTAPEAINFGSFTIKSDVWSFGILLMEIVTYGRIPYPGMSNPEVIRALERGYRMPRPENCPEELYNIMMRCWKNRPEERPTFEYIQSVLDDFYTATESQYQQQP

Jak2 = Jak2 (UniProt O60674); experiment: as above
Fes = Fes (UniProt P07332); experiment: as above
Fes, sequence (P07332 whole entry, looked up): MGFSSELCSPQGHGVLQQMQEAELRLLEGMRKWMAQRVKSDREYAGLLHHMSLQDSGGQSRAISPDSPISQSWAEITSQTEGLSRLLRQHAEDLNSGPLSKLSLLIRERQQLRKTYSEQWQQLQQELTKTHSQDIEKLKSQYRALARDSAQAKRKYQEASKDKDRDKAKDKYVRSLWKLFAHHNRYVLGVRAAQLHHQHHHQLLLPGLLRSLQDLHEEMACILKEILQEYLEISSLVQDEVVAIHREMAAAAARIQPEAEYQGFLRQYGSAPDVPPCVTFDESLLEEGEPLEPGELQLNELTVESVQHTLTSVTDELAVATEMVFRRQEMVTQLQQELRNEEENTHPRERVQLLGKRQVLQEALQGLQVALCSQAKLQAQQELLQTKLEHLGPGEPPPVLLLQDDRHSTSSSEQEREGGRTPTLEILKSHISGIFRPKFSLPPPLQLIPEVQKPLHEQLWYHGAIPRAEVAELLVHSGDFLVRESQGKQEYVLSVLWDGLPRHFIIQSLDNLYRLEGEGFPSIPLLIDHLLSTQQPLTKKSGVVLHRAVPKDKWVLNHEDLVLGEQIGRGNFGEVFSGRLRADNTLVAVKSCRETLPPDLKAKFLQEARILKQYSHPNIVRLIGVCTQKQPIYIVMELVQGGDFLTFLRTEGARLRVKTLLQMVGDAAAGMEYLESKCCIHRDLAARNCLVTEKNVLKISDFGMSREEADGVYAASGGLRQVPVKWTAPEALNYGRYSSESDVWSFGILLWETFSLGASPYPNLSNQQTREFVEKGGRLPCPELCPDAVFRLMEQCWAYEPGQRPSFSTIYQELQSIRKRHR

Fyn = Fyn (UniProt P06241); experiment: as above
Fyn, sequence (P06241 whole entry, looked up): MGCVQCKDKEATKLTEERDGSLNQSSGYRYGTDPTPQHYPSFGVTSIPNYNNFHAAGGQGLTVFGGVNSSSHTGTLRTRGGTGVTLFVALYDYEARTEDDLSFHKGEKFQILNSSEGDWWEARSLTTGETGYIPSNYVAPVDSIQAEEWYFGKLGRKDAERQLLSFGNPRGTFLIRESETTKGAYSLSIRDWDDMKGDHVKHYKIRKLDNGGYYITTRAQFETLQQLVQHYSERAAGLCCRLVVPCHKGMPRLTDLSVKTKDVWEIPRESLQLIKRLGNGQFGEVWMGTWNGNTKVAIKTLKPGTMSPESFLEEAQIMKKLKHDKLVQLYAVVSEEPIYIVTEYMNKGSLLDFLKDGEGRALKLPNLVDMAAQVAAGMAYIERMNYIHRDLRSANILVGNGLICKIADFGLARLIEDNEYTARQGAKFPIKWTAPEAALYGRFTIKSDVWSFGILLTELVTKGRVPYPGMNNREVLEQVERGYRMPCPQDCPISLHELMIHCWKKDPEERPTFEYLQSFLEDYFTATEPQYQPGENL

Fer (mouse) = experiment: as above
AncSZ = experiment: as above
FGFR1 = FGFR1 (UniProt P11362); experiment: as above
FGFR1, sequence (P11362 whole entry, looked up, the tested form may be a part): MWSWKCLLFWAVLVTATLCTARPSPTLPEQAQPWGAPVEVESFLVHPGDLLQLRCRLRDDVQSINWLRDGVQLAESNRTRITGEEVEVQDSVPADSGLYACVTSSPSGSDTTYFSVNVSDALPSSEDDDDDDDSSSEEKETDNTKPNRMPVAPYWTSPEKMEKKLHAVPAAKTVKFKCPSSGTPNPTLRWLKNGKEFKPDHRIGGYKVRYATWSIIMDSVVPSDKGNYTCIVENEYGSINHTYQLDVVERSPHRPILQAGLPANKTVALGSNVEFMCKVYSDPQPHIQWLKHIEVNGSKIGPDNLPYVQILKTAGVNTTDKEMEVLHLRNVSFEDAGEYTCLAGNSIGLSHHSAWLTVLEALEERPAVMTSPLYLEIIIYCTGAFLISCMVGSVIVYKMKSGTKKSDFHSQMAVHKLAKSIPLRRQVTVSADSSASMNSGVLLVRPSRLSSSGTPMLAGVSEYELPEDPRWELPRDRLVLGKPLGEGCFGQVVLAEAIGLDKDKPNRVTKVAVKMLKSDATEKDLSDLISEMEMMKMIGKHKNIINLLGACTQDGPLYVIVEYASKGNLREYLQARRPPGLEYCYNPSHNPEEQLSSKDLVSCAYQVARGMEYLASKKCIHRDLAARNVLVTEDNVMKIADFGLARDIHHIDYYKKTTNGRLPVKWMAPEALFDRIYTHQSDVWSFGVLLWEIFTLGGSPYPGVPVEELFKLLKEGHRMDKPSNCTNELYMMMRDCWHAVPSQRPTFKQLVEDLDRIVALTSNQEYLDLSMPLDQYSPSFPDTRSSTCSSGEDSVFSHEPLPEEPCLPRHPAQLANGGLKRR
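For SH2 binding enrichment of the phosphorylated peptide, bacterial display in this document: peptide library displayed on the E. coli surface as eCPX fusions, selected cells deep-sequenced, score is each peptide's frequency after selection divided by its frequency in the input.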
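For phosphorylation enrichment, bacterial display in this document: 11-residue human phosphosite peptides and single-mutation variants displayed on the E. coli surface, counted by deep sequencing, each peptide's frequency after selection divided by its frequency in the unselected input library; frequency after pTyr selection over input frequency; kinase dosed for 20-30% of maximal phosphorylation in three min.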

Grb2 SH2, sequence (P62993 whole entry, looked up): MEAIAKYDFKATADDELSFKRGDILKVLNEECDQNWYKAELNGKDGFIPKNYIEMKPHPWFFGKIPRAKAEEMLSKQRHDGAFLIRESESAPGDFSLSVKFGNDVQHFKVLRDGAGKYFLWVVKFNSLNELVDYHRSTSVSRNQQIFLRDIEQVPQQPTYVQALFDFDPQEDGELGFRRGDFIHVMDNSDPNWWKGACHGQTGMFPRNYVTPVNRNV

Row | Sequence | SH2 binding enrichment (Grb2 SH2) | SH2 binding enrichment (c-Src SH2) | SH2 binding enrichment (SHP2-C SH2) | phosphorylation enrichment (EPHB2) | phosphorylation enrichment (EPHB1) | phosphorylation enrichment (FGFR3) | phosphorylation enrichment (MERTK) | phosphorylation enrichment (c-Src) | phosphorylation enrichment (c-Abl (mouse)) | phosphorylation enrichment (Hck) | phosphorylation enrichment (Jak2) | phosphorylation enrichment (Fes) | phosphorylation enrichment (Fyn) | phosphorylation enrichment (Fer (mouse)) | phosphorylation enrichment (AncSZ) | phosphorylation enrichment (FGFR1)
1 | EFITRYIDSLK [PSMA7_Y110_A112D_YF] | 0.818 | 0.552 | 0.713 | 0.493 | 0.425 | 0.639 | 0.479 | 0.456 | 0.483 | 0.501 | 0.733 | 0.878 | 0.526 | 0.426 | 0.785 | 0.558
2 | EFKKKYSDADI [CKAP5_Y1860_YF] | 0.883 | 0.487 | 0.616 | 0.565 | 0.303 | 0.476 | 0.472 | 0.334 | 0.464 | 0.408 | 0.606 | 0.683 | 0.459 | 0.331 | 0.576 | 0.413
3 | EGDGVYTLNNK [HP_Y125_E130K] | 1.08 | 0.377 | 0.426 | 0.378 | 0.601 | 0.586 | 0.354 | 4.5 | 0.62 | 3.23 | 0.749 | 0.857 | 7.02 | 0.455 | 0.86 | 0.48
4 | EHLNRYISDTF [TTLL10_Y446] | 0.9 | 0.462 | 0.652 | 0.473 | 0.44 | 0.567 | 0.393 | 0.42 | 0.655 | 0.51 | 0.535 | 0.641 | 0.434 | 0.434 | 0.737 | 0.428
5 | EHVMPYAANKN [GRIN2A_Y1431] | 0.792 | 0.484 | 0.747 | 0.302 | 0.392 | 0.344 | 0.322 | 0.375 | 0.374 | 0.358 | 0.56 | 0.463 | 0.313 | 0.253 | 0.53 | 0.361
6 | EKHGQYLIGHG [EPHB4_Y581_D576E] | 0.792 | 0.381 | 0.664 | 0.408 | 0.413 | 0.5 | 0.46 | 0.396 | 0.543 | 0.475 | 0.555 | 0.719 | 0.42 | 0.381 | 0.618 | 0.503
7 | EKLQQYIAPGM [EPHB3_Y600] | 0.696 | 0.47 | 0.734 | 0.35 | 0.401 | 0.506 | 0.328 | 0.412 | 0.582 | 0.363 | 0.927 | 0.759 | 0.334 | 0.435 | 0.589 | 0.389
8 | EKSREYHRLFE [PIK3R1_Y463_D464H_YF] | 0.912 | 4.61 | 0.753 | 0.483 | 0.407 | 0.538 | 0.427 | 0.442 | 0.486 | 0.429 | 0.51 | 0.737 | 0.358 | 0.409 | 0.656 | 0.526
9 | ELANYYKLHHI [AK7_Y391] | 0.705 | 0.474 | 0.941 | 12.3 | 13.7 | 4.77 | 3.36 | 0.762 | 0.565 | 0.743 | 6.75 | 0.591 | 0.566 | 0.629 | 0.647 | 6.91
10 | ELELLYPDRNS [NYX_Y284_L285P] | 0.831 | 0.513 | 1.01 | 0.544 | 0.556 | 0.759 | 0.433 | 0.489 | 0.799 | 0.534 | 1.03 | 1.27 | 0.492 | 0.463 | 1.17 | 0.776
11 | ELPEKYSQNIY [PKP2_Y626] | 0.891 | 0.419 | 0.555 | 0.526 | 0.459 | 0.763 | 0.384 | 0.575 | 0.658 | 0.905 | 0.891 | 0.921 | 0.762 | 0.475 | 0.905 | 0.52
12 | ELQGTYTSLQQ [KIF3C_Y574_R571Q] | 0.827 | 1.9 | 1.63 | 0.862 | 0.638 | 0.595 | 0.641 | 3.34 | 0.768 | 1.74 | 0.867 | 0.995 | 2.63 | 0.592 | 0.984 | 0.63
13 | EMFNPCFGLFE [NEDD4L_Y679_Y679C_YF] | 1.08 | 0.716 | 0.792 | 0.687 | 0.71 | 0.798 | 0.554 | 0.725 | 1.29 | 0.562 | 1.41 | 1.45 | 0.543 | 0.811 | 1.27 | 0.667
14 | EPFELYCEMGS [CBL_Y371_Q367P_YF] | 0.764 | 0.397 | 0.558 | 2.31 | 2.64 | 1.22 | 1.16 | 1.21 | 0.848 | 1.51 | 1.38 | 1.55 | 1.26 | 0.749 | 1.68 | 0.897
15 | EPGNLYIAKVE [CNTN4_Y180_T176P] | 0.788 | 0.405 | 0.553 | 0.482 | 0.454 | 0.605 | 0.347 | 0.439 | 0.665 | 0.502 | 0.898 | 1.09 | 0.386 | 0.408 | 0.833 | 0.435
16 | EPTPGYEVGQR [TSC2_Y1788] | 0.812 | 0.6 | 0.677 | 0.585 | 0.472 | 0.591 | 0.491 | 0.507 | 0.602 | 0.566 | 0.672 | 0.907 | 0.51 | 0.545 | 0.863 | 0.514
